The source of these data is PMC8584152, “The Bacterial Amyloids Phenol Soluble Modulins from Staphylococcus aureus Catalyze Alpha-Synuclein Aggregation” (International Journal of Molecular Sciences, 2021).

Sequences and labels used below:
B1: PSMα2 sequence GIIKFIKGLI (10-residue array peptide) (peptide)
peptide: GIIKFIKGLI
notes: source: 10-residue peptide immobilized on a microarray chip; maker not clearly stated
B2: PSMα3 sequence FVAKLFKFFK (10-residue array peptide) (peptide)
peptide: FVAKLFKFFK
notes: as for B1
B3: PSMα2 sequence IIAGIIKFIK (10-residue array peptide) (peptide)
peptide: IIAGIIKFIK
notes: as for B1

This assay addresses Human wildtype α-syn, Alexa-fluor488-labelled (human, UniProt P37840 1-140). The assay can be described thus: peptide or protein array. Conditions: both partners purified.
With B1, the binding result is given as “binds”. To B2 belongs “binds”. With B3 the entry was “binds”.
